14 molecules from patent US20250206818A1 (AGENUS, published 2025) can be followed below.

One assay addresses T1, human LAG-3 (human, UniProt P18627 23-450, limits assumed).
T1 construct: Selections used human LAG-3-Fc, human LAG-3-6His, a 30 aa LAG-3 peptide and/or cells with cynomolgus LAG-3; also called CD223
T1 sequence (looked up): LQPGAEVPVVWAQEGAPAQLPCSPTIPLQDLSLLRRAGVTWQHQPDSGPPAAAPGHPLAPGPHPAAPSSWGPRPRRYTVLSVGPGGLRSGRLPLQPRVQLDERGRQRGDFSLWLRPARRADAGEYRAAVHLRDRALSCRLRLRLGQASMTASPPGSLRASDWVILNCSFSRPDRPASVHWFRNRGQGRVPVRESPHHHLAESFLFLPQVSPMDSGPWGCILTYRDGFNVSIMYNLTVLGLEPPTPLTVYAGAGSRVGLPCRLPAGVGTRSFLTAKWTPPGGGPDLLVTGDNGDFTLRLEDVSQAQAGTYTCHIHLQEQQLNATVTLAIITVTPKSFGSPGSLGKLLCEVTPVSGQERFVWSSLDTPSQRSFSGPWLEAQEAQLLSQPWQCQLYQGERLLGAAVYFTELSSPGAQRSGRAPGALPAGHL
The experiment in a line: Fab phage display selection; periplasmic extracts screened by ELISA or flow cytometry. The source says: Anti-LAG-3 antibodies were identified by generation and selection of an immunized Fab phage display library. […] Per mouse, a Fab library was then generated by random-primed cDNA using total RNA as a template to amplify variable regions from mouse antibody genes. Heavy and kappa chain amplicons were combined and cloned into phagemid vectors. […] The 30 amino acid human LAG-3 peptide is a biotinylated peptide comprising the amino acid sequence of […] (SEQ ID NO: 199). Periplasmic extracts of selected Fab clones were then screened by ELISA or flow cytometry. Antibody sequencing and off-rate analysis were then performed on anti-LAG-3 Fabs.

The target of assay [1] is T2, human LAG-3 expressed on cells (human, UniProt P18627 23-525).
T2 construct: whole, on cells; also called CD223
T2 sequence (looked up): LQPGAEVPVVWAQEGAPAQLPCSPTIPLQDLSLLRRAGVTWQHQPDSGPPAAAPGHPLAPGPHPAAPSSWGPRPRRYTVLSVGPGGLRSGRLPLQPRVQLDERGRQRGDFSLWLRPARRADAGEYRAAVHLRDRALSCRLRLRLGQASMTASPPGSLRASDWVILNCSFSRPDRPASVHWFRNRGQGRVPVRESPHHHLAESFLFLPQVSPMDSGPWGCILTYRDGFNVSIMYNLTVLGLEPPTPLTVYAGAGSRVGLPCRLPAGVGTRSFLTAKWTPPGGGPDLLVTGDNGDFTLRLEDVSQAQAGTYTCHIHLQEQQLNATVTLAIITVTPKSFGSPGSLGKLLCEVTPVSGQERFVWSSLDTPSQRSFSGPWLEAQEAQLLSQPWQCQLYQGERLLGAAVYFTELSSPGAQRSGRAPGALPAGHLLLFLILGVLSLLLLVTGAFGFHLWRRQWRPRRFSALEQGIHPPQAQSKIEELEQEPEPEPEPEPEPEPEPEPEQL
Briefly: flow cytometry, Fab periplasmic extract on Jurkat cells expressing human LAG-3 (FIGS. 1A-1C). The method, then:
The anti-LAG-3 Fabs from periplasmic extracts were tested for binding to LAG-3-expressing cells using flow cytometry. Briefly, wild type and human LAG-3-expressing Jurkat cells were plated at 2×10⁵ cells/well in sample buffer (PBS (Gibco, Cat #10010-015)+0.5% FBS (Gibco, Cat #10270-106)) in 96-well U-bottom plates (Sarstedt). 22 μl of anti-LAG-3 Fab periplasmic extract and 83 μl of diluted anti-c-myc antibody (Gentaur, Clone #9E10, Cat #04-cmyc-9E10) were incubated for 30 minutes at room temperature. 100 μl of the periplasmic extract/anti-c-myc mixture was added to cells and then incubated for one hour on ice. Cells were washed three times and then incubated with a goat anti-mouse APC (BD Biosciences, Cat #550826) for 30 minutes on ice. Cells were washed three times and then analyzed with a FACS machine (BD Accuri6).

B1: P13G05 Fab (Fab, V domains shown)
VH: QVQLQQSGAELVKPGASVELSCTASGFNIRDTYMYWVKQRPEQGLEWIGRIDPANGNTKFDPKFQDRATMTADTSSNTAYLQLSSLTSEDTAVYYCTTYFYRYDVGGFDYWGQGTTLTVS
VL: EIVLTQSPALMAASPGEKVTITCSVSSSISSSNLHWYQQKSGTSPKLWIYGTSNLASGVPVRFSGSGSGTSYSLTISSMEAEDAATYYCQQWSSYPFTFGSGTKLEIK
notes: Murine Fab, periplasmic extract
For the molecule B1, the binding result (with human LAG-3; in assay [1]) was “binds” throughout.

B2: P13A04 Fab (Fab, V domains shown)
VH: QVQLQQPGAELVKPGASVELSCTASGFNIRDTYMYWVKQRPEQGLEWIGRIDPANGNTKFDPKFQDRATMTADTSSNTAYLQLSSLTSADTAVYYCTTYFYRYDVGGFDYWGQGTTLTVS
VL: DIVLTQSPALMAASPGEKVTITCSVSSSISSSNLHWYQQKSGTSPKLWIYGTSNLASGVPVRFSGSGSGTSYSLTISNMEAEDAATYYCQQWSSYPFTFGSGTKLEIK
notes: as for B1
Turning to B2, the binding result (in the assay with human LAG-3; in assay [1]) was “binds” each time.

B3: P14G01 Fab (Fab, V domains shown)
VH: QVQLKESGAELVKPGASVELSCTASGFNIRDTYMYWVKQRPEQGLEWIGRIDPANGNTKFDPKFQDRATMTADTSSNTAYLQLSSLTSEDTAVYYCTTYFYRYDVGGFDYWGQGTTLTVS
VL: DIVLTQSPALMAASPGEKVTITCSVSSSISSSNLHWFQQKSGTSPKLWIYGTSNLASGVPVRFSGSGSGTSYSLTISSMEAEDAATYYCQQWSSYPFTFGSGTKLEIK
notes: as for B1
B3: the binding result (with human LAG-3; in assay [1]) was “binds” in each case.

B4: P15G05 Fab (Fab, V domains shown)
VH: EVQLQQSGAELVKPGASVELSCTASGFNIRDTYMYWVKQRPEQGLEWIGRIDPANGNTKFDPKFQDRATMTADTSSNTAYLQLSSLTSEDTAVYYCTTYFYRYDVGGFDYWGQGTTLTVS
VL: EIVLTQSPALMAASPGEKVTITCSVSSSISSSNLHWYQQKSGTSPKLWIYGTSNLASGVPVRFSGSGSGTSYSLTISSMEAEDAATYYCQQWSSYPLTFGAGTKLELK
notes: as for B1
As for B4, the binding result (with human LAG-3; in assay [1]) was “binds” throughout.

B5: P13D05 Fab (Fab, V domains shown)
VH: QVQLQQPGAELVKPGASVELSCTASGFNIRDTYMYWVKQRPEQGLGWIGRIDPANGNTKFDPKFQDRATMTADTSSNTAYLQLSSLTSEDTAVYYCTTYFYRYDVGGFDYWGQGTTLTVS
VL: EIVLTQSPALMAASPGEKVTITCSVSSSISSSNLHWFRQKSGTSPKLWIYGTSNLASGVPVRFSGSGSGTSYSLTISSMEAEDAATYYCQQWSSYPFTFGSGTKLEIK
notes: as for B1
As for B5, the binding result (in the assay with human LAG-3; in assay [1]) was “binds” throughout.

B6: P15C02 Fab (Fab, V domains shown)
VH: QVQLQQSGAELVKPGASVELSCTASGFNIRDTYMYWVKQRPEQGLEWIGRIDPANGNTKFDPKFQDRATMTADTSSNTAYLQLSSLTSEDTAVYYCTTYFYRYDVGGFDYWGQGTTLTVS
VL: DVVMTQTPALMAASPGEKVTITCSVSSSISSSNLHWYQQKSGTSPKLWIYGTSNLASGVPVRFSGSGSGTSYSLTISSMEAEDAATYYCQQWSSYPFTFGSGTKLEIK
notes: as for B1
As to B6, the binding result (in the assay with human LAG-3; in assay [1]) was “binds” in each case.

B7: P14F01 Fab (Fab, V domains shown)
VH: QVQLQQSGAELVKPGASVELSCTASGFNIRDTYMYWVKQRPEQGLEWIGRIDPANGNTKFDPKFQDRATMTADTSSNTAYLQLSSLTSEDTAVYYCTTYFYRYDVGGFDYWGQGTTLTVS
VL: ENVLTQSPALMAASPGEKVTITCSVSSSISSSNLHWYQQKSGTSPKLWIYGTSNLASGVPVRFSGSGSGTSYSLTISSMEAEDAATYYCQQWSTYPFTFGSGTKLEIK
notes: as for B1
B7: the binding result (in the assay with human LAG-3; in assay [1]) was “binds” in each case.

B8: P13G04 Fab (Fab, V domains shown)
VH: EVKLMESGAELVKPGASAELSCTASGFNIRDTYMYWVKQRPEQGLEWIGRIDPANGNTKFDPKFQDRATMTADTSSNTAYLQLSSLTSEDTAVYYCTTYFYRYDVGGFDYWGQGTTLTVS
VL: ENVLTQSPALMAASPGEKVTITCSVSSSISSSNLHWFQQKSGTSPKLWIYGTSNLASGVPVRFSGSGSGTSYSLTISSMEAEDAATYYCQQWSSYPFTFGSGTKLEIK
notes: as for B1
Turning to B8, the binding result (with human LAG-3; in assay [1]) was “binds” in each case.

B9: P13C10 Fab (Fab, V domains shown)
VH: QVQLQQSGAELVKPGASVELSCTASGFNIRDTYMYWVKQRPEQGLEWIGRIDPANGNTKFDPKFQDRATMTADTSSNTAYLQLSSLTSEDTAVYYCTTYFYRYDVGGFDYWGQGTTLTVS
VL: ENVLTQSPALMAASPGEKVTITCSVSSSISSSNLHWFQQKSGTSPKLWIYGTSNLASGVPVRFSGSGSGTSYSLTISSMEAEDAATYYCQQWSSYPFTFGSGTKLEIK
notes: as for B1
Take B9: the binding result (with human LAG-3; in assay [1]) was “binds” each time.

B10: P13F06 Fab (Fab, V domains shown)
VH: QVQLQQSGAELVKPGASVELSCTASGFNIRDTYMYWVKQRPEQGLEWIGRIDPANGNTKFDPKFQDRATMTADTSSNTAYLQLSSLTSEDTAVYYCTTYFYRYDVGGFDYWGQGTTLTVS
VL: EILLTQSPALMAASPGEKVTITCSVSSSISSSNLHWYQQKSGTSPKLWIYGTSNLASGVPVRFSGSGSGTSYSLTISSMEAEDAATYYCQQWSSYPFTFGSGTKLEIK
notes: as for B1
For B10, the binding result (with human LAG-3; in assay [1]) was “binds” each time.

B11: P13G01 Fab (Fab, V domains shown)
VH: EVQLQQSGAELVKPGASVELSCTASGFNIRDTYMYWVKQRPEQGLEWIGRIDPANGNTKFDPKFQDRATMTADTSSNTAYLQLSSLTSEDTAVYYCTTYFYRYDVGGFDYWGQGTTLTVS
VL: QIVLTQSPALMAASPGEKVTITCSVSSSISSSNLHWYQQKSGTSPKLWIYGTSNLASGVPVRFSGSGSGTSYSLTISSMEAEDAATYYCQQWSSYPFTFGSGTKLEIK
notes: as for B1
As to B11, the binding result (with human LAG-3; in assay [1]) was “binds” in each case.

B12: P01A12 Fab (Fab, V domains shown)
VH: EVQLQQSGAELVKPGASVKLSCTASGFNIKDTYMYWVKQRPEQGLDWIGRIDPANGNTKFDPKFQGKATITADTSSNTAYLQLSSLTSEDTAVYYCSTYYYRYDVGGFDYWGQGTTLTVS
VL: DIVLTQSPALMAASPGEKVTITCSVSSSISSSNLHWYQQKSGTSPKLWIYGTSNLASGVPVRFSGSGSGTSYSLTISSMEAEDAATYYCQQWSSYPFTFGSGTKLEIK
notes: as for B1
Regarding B12, the binding result (with human LAG-3; in assay [1]) was “binds” each time.

B13: P13C06 Fab (Fab, V domains shown)
VH: QVQMKQSGAELVKPGASVELSCTASGFNITDTYMYWVKQRPEQGLEWIGRIDPANGNTKFDPKFQDRATMTADTSSNTAYLQLSSLTSEDTAVYYCTTYFDKYDVGGCDYWGQGTTLTVS
VL: EIVLTQSPALMAASPGEKVTITCSVSSSISSSNLYWFQHKSGTSPKLWIYGTSNLASGVPVRFSGSGSGTSYSLTISSMDAENAATYYCQQWRSYPFTFGSGTKLEIK
notes: as for B1
For B13, the binding result (in the assay with human LAG-3; in assay [1]) was “binds” each time.

B14: P13B01 Fab (Fab, V domains shown)
VH: EVQLQQSGAELVKPGASVKLSCTASGFNIKDTYIYWVKQRPERGLEWIGRIDPANGNTKFDPKFQGTATITADTSSNTAYLQLSSLTSEDTAVYYCTTYFYRYDVGGFDYWGQGTTLTVS
VL: ENVLTQSPALMAASPGEKVTITCSVSSSISSSNLHWYQQKSGTSPKLWIYGTSNLASGVPVRFSGSGSGTSYSLTISSMEAEDAATYYCQQWSSYPFTFGSGTKLEIK
notes: as for B1
With B14, the binding result (with human LAG-3; in assay [1]) was “binds” each time.
